According to the DeepSol protein solubility set:

Experiment: soluble on expression in E. coli; label from the status in PepcDB or PDB records

**Q.** With “MGSDKIHHHHHHMEINVGAVISANRKQKGITQQALADFVGVSKASVSKWETGQSYPDITLLPILAAYFDVSIDKLMAYDAQLSSTEIRRIYTSMKQAFETQPGDAVLKSIRNLIRRYYACYPFLLQMGLLILNHYDLLPGTSQTAKVTEYVNEARLLFVRVRQNSQKAQLTAKAVELEGYSLLLLQRPDDVLALLGEYVPEQLPADSLIAGAFQQKGDFRRAIATSQSGLMQDLSIIMSQLTNYMTLLKDDPNRLAATYQRGQAIAKAFDLATLNPAVWLNFQLAALNGFAQQDKTDEAVALLQEFTHVLTATKMPLTLHGDAYFDAIEPWLEQLDLGSQSPRVSGQAKQVLADFVLQNPALAKIRTLPVVQPLLAELKQVSGHR” as the sequence, how does the “soluble on expression in E. coli” value read?
**A.** not soluble

**Q.** With “MGHHHHHHSHDVPEMPSIPNPFPELCCSPFTSVLSADLFPKANSRKKQVIKVYSEDETSRALDVPSDITARDVCQLLILKNHYIDDHSWTLFEHLPHIGVERTIEDHELVIEVLSNWGIEEENKLYFRKNYAKYEFFKNP” as the sequence, how does the “soluble on expression in E. coli” value read?
**A.** not soluble

**Q.** Which “soluble on expression in E. coli” value does the source give for “LHPDKCRAPHATEAFKALGNAYAVLSDTDKRRQYDQYGAEAANSHTPTTRRRGGGHGAFFEHDYAHGFEAEFTPEEIFNMFFGGGFPTEQVRRRARYAQQQQYHHYEQQQSPYGPLLQLLPLIAIMVIGLLAQLMVGEPAYSLHQTSKFTIKRLTADLRVPYFVRTDFETSYRGRIRQVEQQVEDDYIQNLRMNCYKEQNLKETKLYRARWMRDEAMMRDAERTPLPSCIRLNEIYSH” here?
**A.** not soluble

**Q.** Which “soluble on expression in E. coli” value does the source give for “MVREDRSTWKANYFTKLVELFEEYPKCLLVGVDNVGSKQMQEIRQAMRGHAEILMGKNTMIRKALRGHLGKNPSLEKLLPHIVENVGFVFTKEDLGEIRSKLLENRKGAPAKAGAIAPCDVKLPPQNTGMGPEKTSFFQALQIPTKIARGTIEILNDVHLIKEGDKVGASESALLNMLGVTPFSYGLVVRQVYDDGTLYTPEVLDMTTEELRKRFLSGVRNVASVSLAVNYPTLASVAHSLANGLQNMLGVAAVTDVSFKEAETIKAFIADPSKFAAAAPAAAAAPAAAAPAAKKEEPKEESDDDMGFGLFD” here?
**A.** not soluble

**Q.** Which “soluble on expression in E. coli” value does the source give for “MGSDKIHHHHHHMEDKQKVIFIEDDPNLGLIIVLALQSKGYEVCYANTLSGIQDMIEKDCPNILLLDLEVGNQNALDYLPFIRSKHPSLPVLIASSHNEGEEITRCYEAGANHYTKKPYDIQEIDFLIQRFCKKGSPISNSISIGDYQLELSTHKLFYKQEQSKTLSPKDFKLFYLLSEQLNQPVSREKLFHEIWDGQEVHDSLNNSISRLRKLLEKDTTLSIDAVKGVGYILSKKDQLSSS” here?
**A.** not soluble

**Q.** Which “soluble on expression in E. coli” value does the source give for “MSLANGIEFNQNPASVFNSNSLDFELESQQLTQKNSSNTSSPLINLQNELAMITSSSLSETIEGLSLGYRKGSARKEEEGTTIEKLLNEMQELLTLTDSDKIKELSLKNSGLLEQHDPTLAMFGNMPKGEIVALISSLLQSKFVKIELKKKYAKLLLDLLGEDDWELALLSWLGVGELNQEGIQKIKKLYEKAKDEDSENGASLLDWFMEIKDLPEREKHLKVIIRALSFDLSYMSSFEDKVRTSSIISDLCRIIIFLSLNNYTDIIAISIKKDKDVILNEMLSIIEHVWLTEDWLLESPSRVSIVEDKHVYYFHLLKEFFASLPDACFIDNEQRSNTLLMIGKVIDYKEDVMEGHHHHHH” here?
**A.** soluble

**Q.** With “MGSDKIHHHHHHMVQSLKVILWGEEIGRLAWDARRRLSYFMYNPAFLKKGLNISPLAAPVDGARGLMPVWGEEAKIYQKLPAFLADSLPDSWGNQLFELWRQQNHLSNADITPLDKLSFIGKRGMGALEFLPEVSRERKAEKIDIKSLANLAERIFSERENARILPEESVTMQSLLTVGTSAGGRQPKAIVAINLKNGEVRSGQISGLEEFDYYLVKFGNSQYSSAELEMSYYELATMAGINMMPSKLYQVDGNNHFMTKRFDRNHGKKIHTQTLAAISPDADSYEQLITVCRKLHLPETDCYEVFRRMVFNVLANNTDDHNKNFSFVMSEDGTWRLSPAYDVTYIFDNGGFLPNEDHCMYIRAKLRNITREDVIQFAKDNGIRRPDAIIRDIVNAMKQFRTVATKYGVAEQWVGRVENTIVDRLKSWRELEEMAPEICELVINGHIIKNIRIEQAYKGNFHLLAEIDGHERKFIIGKNKEEFSLIESMGIANLSSNQLKDMVEKYFIHLKV” as the sequence, how does the “soluble on expression in E. coli” value read?
**A.** not soluble

**Q.** With “MLNRFKSWRERGWVPIDAAAYELAWQRLGGSVATHPLVVARLSEFSGIPVRYLAWEQGGEVKAAIATWGRSLALSKDELKRHGKKGLFDLGNAELILPVAEGVQVPVRHRARYVSALNEGRISTLKSQTESLAMARTPEELSKKFRYNQRRELRLLEEAGGTVRPVSEFSSAELASMYCDLFQRRWGFEATGARDKAQVIELLRDLLIGSVVFLNDAPIAIQLVYRVEAPQWVSIEYVNGGVDPETRDFSPGSVLSFVNTQSAWEDARALGKALRFSFGRADREYKDRWCNPVPVFQL” as the sequence, how does the “soluble on expression in E. coli” value read?
**A.** not soluble

**Q.** With “TKNNQQTTPQTNHFNVADPVNKVPNWRKLGPETQRELRDLLYPLDDTGYFIYKYGAISRYLQSQKELDELVDYRTVLPSTQKHFKYDSFNQSVLESKLRKWLMKAIKQHPYFQHFEFDPVLKAQYNINIPAQKITVNAVWFYKKDNDLTTGKPIRYWDQFEIKLKQ” as the sequence, how does the “soluble on expression in E. coli” value read?
**A.** soluble

**Q.** With “SNAMNVNQIVRIIPTLKANNRKLNETFYIETLGMKALLEESAFLSLGDQTGLEKLVLEEAPSMRTRKVEGRKKLARLIVKVENPLEIEGILSKTDSIHRLYKGQNGYAFEIFSPEDDLILIHAEDDIASLVEVGEKPEFQTDLASISLSKFEISMELHLPTDIESFLESSEIGASLDFIPAQGQDLTVDNTVTWDLSMLKFLVNELDIASLRQKFESTEYFIPKSEKFFLGKDRNNVELWFEEV” as the sequence, how does the “soluble on expression in E. coli” value read?
**A.** soluble

**Q.** For “MLLNLQKILKKWVICTLPKPNVTFLAIKFFNLKNEFLFFSKFCKKQPKFEILNVSYCSQNFQKYRIQYLNYFKISTFFSIKKSHIQV”, which “soluble on expression in E. coli” value is on record?
**A.** not soluble

**Q.** For “MGSDKIHHHHHHMKIKHIFTDMDGTLLDSHGSVSDTNHWSIYYSDLPITLVSARSPLEMSNIVEKLQLRTPQIAFNGNLTFTQNQFGLQIIDKNPLASETVSQLLNYISTEFPNVSLNWYSLAHWYINKQDKGTFIQKAITGIEPKIKTFDGQSEIYKIMMIVFDSQELLQLQAQLNNLNIPNISVQQSGQWYLEITSDNKTKADAVQSILDNKNLDFQEIAAIGDGHNDIPLLQSAGLAIAVDNANSEVKKHVKMVVAKNTEHGVAEAISAINTINEQVI”, which “soluble on expression in E. coli” value is on record?
**A.** not soluble

**Q.** Which “soluble on expression in E. coli” value does the source give for “MGSDKIHHHHHHMWTQQMIHTKRGTFELFTKGNGEPLCITHHYSQFNETGDYFADVFTSTHRVLLINLRDAGNSAKANSEKELSMIETIHDLEAIREALQLPTWHFAGHSTGGMLGLLYAITYPKSLQSLVLVGAAASNYTETPFCIYHPEHPQFHYMQHLIENLKSPHLTNEERKELSTERTKLSLHKPENYNSYFCKPIQKTMSASRMNAFSHEYPAFNLREHLPSMKTKTLIICGRYDVQCPIQYSIEMHEGIRNSIFVTFEESNHYPFLEEAAQFTSTIRTFYKLLH” here?
**A.** not soluble

**Q.** For “MGSDKIHHHHHHMTDIATYNFAYLDEQTKRMIRRAILKGIAIPGYQVPFASREMPMPYGWGTGGVQVTASIIGPDDVLKVIDQGADDTTNAVSIRAFFKKVANVAVTTNTASATIIQTRHRIPEHPLTAGQVLVYQVPIPEPLRFLEPRETETRKMHALEEYGLMHVKLYEDIAKHGRIATTYAYPVKVEGRYVMDPSPTPKFDNPKMHRSPALQLFGAGREKRIYAVPPFTDVVSLDFEDHPFEVQTFDQPCALCAAENVYLDEVILDDHGGHMFVCSDTDHCEKRREEGHRGHLAPETHLGSEKMEPAQ”, which “soluble on expression in E. coli” value is on record?
**A.** not soluble

**Q.** Which “soluble on expression in E. coli” value does the source give for “MFFTDESGIHHDPSKVRRLGLYNVPVDYPSRKLNVLASIPLFDGVPCFMFTYSNVNSEIFAEFLRLFRNSGPIVLILDNAKFHKNAYVFSVASQLGITLLFLPPYSPDLNPIELVWKDLKRWVNTYYNLEYTLDSMEEEFYYLFLRECSQTVMKFKKRL” here?
**A.** soluble

**Q.** Which “soluble on expression in E. coli” value does the source give for “MSLAPFTTNPRRFDPYKNFKFRVKWDGRYVAGISKVGALKRSTEVIEHREGGDPSTGRKSPGRTKYDAISMERGVTHDLDFEQWANKVWNFGAGLGSEVSLADFRKDLIIDVFNEAGQKVMSYQVFRCWVSEYQALPDLDANANAIAIQSMKLENEGWLRDVAVAEPAEPSFTIPAEGHHHHHH” here?
**A.** soluble

**Q.** For “VGDFTYSISANLSDFTSKMGNLNGTQFLGNQVKMEGSEYNEWYGYVSDGLFLTQEDVDKSPKLNNSVKVGDIKYKDISGPDGVPDGVISPEYDRVLLGGSLPHYMFGLTFNAAYKGWDFGLTLQGVGSQKSQISAAMIEGLRDNWLNFPTILDGNYWSPKNTDEQNATAKYPRLTRTNRDANFCMSDYWLYNGRYIRLKNLSVGYTLPKAWTTKACMNTVRLYVSGSDLFTISNAPKGWDPEVSTEGYPITTSLIFGVSINF”, which “soluble on expression in E. coli” value is on record?
**A.** not soluble

**Q.** For “MAHHHHHHMWSGLKLERLLYTFPETTTPTGWSQSDPLLSSPLGEADANEGDSSAVFGEDVNVEHRHFNNGERRRKLALRPFTVPASAMAEEGGEEGSHVHLGFSFPGEGKFDEEPEAVLWCPQGNCQWLNEESDCSQRSAMSCPARPTKTTIQLGDPGAPIKKNRERKYICNDADENSNSRVGPALYHQLEFFQESNSVSFPCESSALSHITPLDETGESVDLANHMSHLTVAVSPIQKRLLFTGVLDDAVDAPSGRDVGDDKGVGSGLQSLRREKRFLEEMDTNRDAANSNSMACTMPREPHRKFRRIDAGENDRKSLDNHFHSRR”, which “soluble on expression in E. coli” value is on record?
**A.** not soluble

**Q.** Which “soluble on expression in E. coli” value does the source give for “MAHHHHHHMGISEGFEGIGVYAGSISAFMKPAHEKADATFVTNGDGVLPCEQPGSQAAIQAAQADYMASVAMTGKLPSPPHAGAEAHLHAHMQASHTSSLPRRAPPAALNVTPRNPPMSLAADPKLLSSPTSASAARPAVAAAAAAIGVTARPATSSLSSSPRPQSHIAKGASRVTADGSRIMRNKEATDYYRALPQNELSKEDMWRRINEASADRAEATGTAIGSAEVDYIKLEDELRDFDLFHYRIGEMAYPDQAMRRDYYALWNLAMSLNKARWSMLEVHSQRGMKTTGAGMKLIFWKESVGAVMEKRKMCTGEFTDSHPVLRPFAAAVERNPHMTKAFVRGFTDARLRVIQQPGNVQQLFDHFDKFYGYFFNSLLEVTHIKDEATEHLMTHVGRATGLTNHCVMFWKKYARLGFTMLPADLCADNHVNLGLLKNIPLASRDRAVRKVLFDVMCIVKDEMLHAQKCAKDVPPKAWPIVMECLYANYYLGFLQRRDFNVSAMFADHNIENAGFTWYRLKKRWEWERYQSIERLVDEAAPLPYINTCFTHRGSHYKMASGVGSGAPQAQRKRS” here?
**A.** not soluble

**Q.** With “MRSVKVYEETWPLHTPFVIARGSRSEAHVVVVELEEEDVKGIGECTPYPRYGESDASVMAQIMSIVPQLENGLTREALQKLLPAGAARNAVDSALWDLQARQRQQSLAGLLGVTLAPVFTTAQTVVIGTPEQMAASAAALWEKGATLLKIKLDARLISERMVAIRSAVPEATLIVDANESWRPEGLAARCQLLADLNVAMLEQPLPAQDDAALENFIHPLPICADESCHTRSSLKALTGRYDMINIKLDKTGGLTEALALATEAREQGFGLMLGCMLCTSRAISAALPLMPQVSFADLDGPTWLAVDVEPALRFTTGQLHL” as the sequence, how does the “soluble on expression in E. coli” value read?
**A.** not soluble

**Q.** For “MKVVQRKIKKSGKDRKRIGRGGSAYILDKRRITAVQNMKREAEKEKLRERFAAAANMPKDVVLGASVVTVIGNGEISIENYRGILEYTGELIRVQTKKGQIQVHGKGLQIEYYLNDEMKITGKIHTLEYEMLEHHHHHH”, which “soluble on expression in E. coli” value is on record?
**A.** soluble
